According to publication PMC10287905, “Proper RPA acetylation promotes accurate DNA replication and repair” (Nucleic Acids Research, 2023):

Legend:
Experiment in all cases: MST; RED-tris-NTA labelled 6xHis-Rtt105 at constant 100 nM, serial dilutions of RPA complex from 200 to 0.0058 nM; 1x PBS with 0.05% Tween 20; 50 min at room temperature; Monolith NT.115
Settings in all cases: both partners purified
WT RPA complex = target: T1, WT RPA complex (yeast, UniProt P22336 1-621; P26754 1-273; P26755 1-122)
T1 construct: Rfa1, largest subunit of yeast RPA; Rfa2, subunit of yeast RPA; Rfa3, subunit of yeast RPA; the MST methods say only 'RPA complex'; source: purified from yeast cells; copies: + +

4KR RPA complex = target: T2, 4KR RPA complex (yeast, UniProt P22336 1-621; P26754 1-273; P26755 1-122, K259R | K427R | K463R | K494R)
T2 construct: Rfa1, largest subunit of yeast RPA, four lysines mutated to arginine; Rfa2, subunit of yeast RPA; Rfa3, subunit of yeast RPA; also called 4KR mutant RPA; source: purified from yeast cells; copies: + +

4KQ RPA complex = target: T3, 4KQ RPA complex (yeast, UniProt P22336 1-621; P26754 1-273; P26755 1-122, K259Q | K427Q | K463Q | K494Q)
T3 construct: Rfa1, largest subunit of yeast RPA, four lysines mutated to glutamine; Rfa2, subunit of yeast RPA; Rfa3, subunit of yeast RPA; also called 4KQ mutant RPA; source: purified from yeast cells; copies: + +
T3 sequence (P22336 whole entry K259Q/K427Q/K463Q/K494Q, chain 1 of 3): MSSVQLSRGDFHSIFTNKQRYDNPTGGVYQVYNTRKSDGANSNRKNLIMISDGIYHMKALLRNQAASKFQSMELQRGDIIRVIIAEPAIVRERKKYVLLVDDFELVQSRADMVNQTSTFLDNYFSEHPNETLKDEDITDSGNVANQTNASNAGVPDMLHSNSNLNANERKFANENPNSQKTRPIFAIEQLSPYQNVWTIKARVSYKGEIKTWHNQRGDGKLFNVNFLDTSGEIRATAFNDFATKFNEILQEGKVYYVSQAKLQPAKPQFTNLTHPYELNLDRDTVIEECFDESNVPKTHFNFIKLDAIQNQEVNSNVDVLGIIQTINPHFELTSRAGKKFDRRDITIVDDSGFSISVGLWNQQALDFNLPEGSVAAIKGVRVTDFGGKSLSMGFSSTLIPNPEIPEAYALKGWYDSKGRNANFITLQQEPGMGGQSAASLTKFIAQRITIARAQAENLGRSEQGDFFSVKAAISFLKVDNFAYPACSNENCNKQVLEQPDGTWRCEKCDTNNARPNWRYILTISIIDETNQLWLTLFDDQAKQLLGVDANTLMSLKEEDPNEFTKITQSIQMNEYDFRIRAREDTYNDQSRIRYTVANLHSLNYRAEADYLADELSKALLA
T3 sequence (P26754 whole entry, chain 2 of 3): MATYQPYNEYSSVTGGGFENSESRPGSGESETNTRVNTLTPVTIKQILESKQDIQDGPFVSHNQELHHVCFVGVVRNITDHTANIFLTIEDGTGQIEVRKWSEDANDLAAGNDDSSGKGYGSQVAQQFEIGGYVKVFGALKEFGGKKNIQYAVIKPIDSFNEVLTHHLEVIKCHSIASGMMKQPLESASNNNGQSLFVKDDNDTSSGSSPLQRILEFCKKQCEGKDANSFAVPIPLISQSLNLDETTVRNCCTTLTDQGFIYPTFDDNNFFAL
T3 sequence (P26755 whole entry, chain 3 of 3): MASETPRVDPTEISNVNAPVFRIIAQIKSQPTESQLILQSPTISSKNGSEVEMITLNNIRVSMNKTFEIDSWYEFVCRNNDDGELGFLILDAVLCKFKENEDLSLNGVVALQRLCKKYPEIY

T2 sequence (P22336 whole entry K259R/K427R/K463R/K494R, chain 1 of 3): as the sequence (P22336 whole entry K259Q/K427Q/K463Q/K494Q, chain 1 of 3) above, with Q259R, Q427R, Q463R, Q494R counted along it
T2 sequence (P26754 whole entry, chain 2 of 3): as the sequence (P26754 whole entry, chain 2 of 3) above
T2 sequence (P26755 whole entry, chain 3 of 3): as the sequence (P26755 whole entry, chain 3 of 3) above
T1 sequence (P22336 whole entry, chain 1 of 3): as the sequence (P22336 whole entry K259Q/K427Q/K463Q/K494Q, chain 1 of 3) above, with Q259K, Q427K, Q463K, Q494K counted along it
T1 sequence (P26754 whole entry, chain 2 of 3): as the sequence (P26754 whole entry, chain 2 of 3) above
T1 sequence (P26755 whole entry, chain 3 of 3): as the sequence (P26755 whole entry, chain 3 of 3) above

B1: 6xHis-Rtt105 (natural protein, yeast, UniProt P40063 1-208, looked up)
chain: MYSNHNLNSDDCCFDWNEEKAAELQRTGVSFDRSLTPQSLRTSTRRLSEENKQQSGTMHIDTSPSVVSDIISSRRDRSQDFFGPHSSSPIAPSERQRADQRSRLESMRLTRRRDKMTKVRGGLEKMEEMIMQGEHLREMQRLKQEAQKNALPSDMAEYMEWQNNEDLEDDELLAFIEKQETYKNELEHFLNNANKNVYENNSYPNSHT
modifications: labelled with a RED-tris-NTA protein labelling kit
notes: Rtt105, yeast RPA chaperone protein
Work on B1 yielded a Kd (WT RPA complex) of ~1.06 nM, a Kd (4KR RPA complex) of ~1.17 nM and a Kd (4KQ RPA complex) of ~0.51 nM.
